The values below are quoted from earlier work in PMC3831880.

The Kd is the constant that tells how readily two partners part at equilibrium.

For this data set, the target named is HPr (Escherichia coli) (UniProt P0AA04). Kind of data set: PRE titration.

In the case of “Enzyme I N-terminal domain (EIN) N-terminal domain (from UniProt P08839)”, the Kd was 7 µM.
